The values that follow are results of earlier work, collected in publication PMC8002558.

The data set deals with Fibrinogen (Homo sapiens) (UniProt P02671).
UniProt P02671, sequence (P02671 36-866, chain 1 of 3): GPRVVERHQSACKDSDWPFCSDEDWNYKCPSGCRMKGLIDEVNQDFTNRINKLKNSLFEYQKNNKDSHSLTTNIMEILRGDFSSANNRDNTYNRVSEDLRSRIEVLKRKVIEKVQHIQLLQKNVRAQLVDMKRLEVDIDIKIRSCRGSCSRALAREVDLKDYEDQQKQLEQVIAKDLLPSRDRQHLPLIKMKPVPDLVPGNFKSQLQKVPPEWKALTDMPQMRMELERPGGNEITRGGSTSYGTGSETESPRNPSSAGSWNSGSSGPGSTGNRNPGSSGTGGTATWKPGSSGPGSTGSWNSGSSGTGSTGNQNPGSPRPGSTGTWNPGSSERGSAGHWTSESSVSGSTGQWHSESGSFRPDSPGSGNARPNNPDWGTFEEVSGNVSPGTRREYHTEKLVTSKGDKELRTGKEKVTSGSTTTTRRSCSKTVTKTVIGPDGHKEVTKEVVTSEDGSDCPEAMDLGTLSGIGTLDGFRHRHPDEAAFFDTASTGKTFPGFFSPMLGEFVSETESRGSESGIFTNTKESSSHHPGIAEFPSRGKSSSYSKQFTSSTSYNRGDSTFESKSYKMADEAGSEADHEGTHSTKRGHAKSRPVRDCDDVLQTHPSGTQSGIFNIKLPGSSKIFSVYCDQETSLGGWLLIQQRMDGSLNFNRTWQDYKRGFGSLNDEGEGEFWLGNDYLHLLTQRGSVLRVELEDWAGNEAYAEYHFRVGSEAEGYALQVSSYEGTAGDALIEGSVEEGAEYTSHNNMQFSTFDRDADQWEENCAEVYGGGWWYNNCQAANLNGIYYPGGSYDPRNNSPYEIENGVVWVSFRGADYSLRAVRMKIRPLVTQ
UniProt P02671, sequence (P02675 45-491, chain 2 of 3, further chain): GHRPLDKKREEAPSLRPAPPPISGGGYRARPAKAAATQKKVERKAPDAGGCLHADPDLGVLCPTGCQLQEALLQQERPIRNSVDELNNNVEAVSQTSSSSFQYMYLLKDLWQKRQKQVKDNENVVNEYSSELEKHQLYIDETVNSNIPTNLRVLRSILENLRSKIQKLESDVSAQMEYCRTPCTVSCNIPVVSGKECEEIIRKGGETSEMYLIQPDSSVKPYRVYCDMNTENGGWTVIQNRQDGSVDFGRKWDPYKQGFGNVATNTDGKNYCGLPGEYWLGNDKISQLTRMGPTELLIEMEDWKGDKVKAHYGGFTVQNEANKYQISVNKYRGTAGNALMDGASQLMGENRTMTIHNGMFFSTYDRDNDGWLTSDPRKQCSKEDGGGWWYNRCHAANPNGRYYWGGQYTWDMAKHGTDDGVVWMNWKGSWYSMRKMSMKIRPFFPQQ
UniProt P02671, sequence (P02679 27-453, chain 3 of 3, further chain): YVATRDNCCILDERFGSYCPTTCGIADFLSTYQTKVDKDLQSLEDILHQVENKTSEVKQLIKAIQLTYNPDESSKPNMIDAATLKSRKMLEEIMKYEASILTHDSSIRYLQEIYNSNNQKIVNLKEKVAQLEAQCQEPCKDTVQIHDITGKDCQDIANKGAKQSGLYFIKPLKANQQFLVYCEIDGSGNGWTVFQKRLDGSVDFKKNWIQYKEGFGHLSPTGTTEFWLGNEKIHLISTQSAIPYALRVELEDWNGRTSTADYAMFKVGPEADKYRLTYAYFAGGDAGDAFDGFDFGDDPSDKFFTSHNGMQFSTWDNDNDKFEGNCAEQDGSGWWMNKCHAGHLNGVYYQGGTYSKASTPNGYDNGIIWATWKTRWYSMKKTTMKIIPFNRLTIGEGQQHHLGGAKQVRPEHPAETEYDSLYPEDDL

Regarding “Factor XIII (plasma) (from UniProt P00488)”, the dissociation constant Kd – broadly, the free concentration of one partner at which half of the binding sites on the other are occupied at equilibrium, for simple one-to-one binding – is 10 nM.
